Results from patent US20200079833A1 (AstraZeneca / MedImmune, published 2020).
Starred links: 1 amine or outer side, 2 acyl side, 3 side chain; linkers in the order of their positions; H or OH if unused. Non-standard residues stand in square brackets, D forms with d. Groups on a side chain read outwards from the residue. Primed or numbered codes have the meaning given here. No end group written: not given here. *: point of attachment. Dodecylbenzoate = dodecylbenzoyl lipid group; γGlu = O=C(O)[C@H](CCC(=O)[*:2])N[*:1]; αMeF = C[C@](N)(Cc1ccccc1)C(=O)O; αMeK = C[C@](N)(CCCCN)C(=O)O; Lauroyl = CCCCCCCCCCCC(=O)*; αMeS = C[C@](N)(CO)C(=O)O; PEG2′ = not defined here; Aib = CC(C)(N)C(=O)O; Ahx = NCCCCCC(=O)O

T1: glucose-dependent insulinotropic peptide (gastric inhibitory polypeptide) receptor (GIPR) (human, UniProt P48546 22-466)
T1 sequence (looked up): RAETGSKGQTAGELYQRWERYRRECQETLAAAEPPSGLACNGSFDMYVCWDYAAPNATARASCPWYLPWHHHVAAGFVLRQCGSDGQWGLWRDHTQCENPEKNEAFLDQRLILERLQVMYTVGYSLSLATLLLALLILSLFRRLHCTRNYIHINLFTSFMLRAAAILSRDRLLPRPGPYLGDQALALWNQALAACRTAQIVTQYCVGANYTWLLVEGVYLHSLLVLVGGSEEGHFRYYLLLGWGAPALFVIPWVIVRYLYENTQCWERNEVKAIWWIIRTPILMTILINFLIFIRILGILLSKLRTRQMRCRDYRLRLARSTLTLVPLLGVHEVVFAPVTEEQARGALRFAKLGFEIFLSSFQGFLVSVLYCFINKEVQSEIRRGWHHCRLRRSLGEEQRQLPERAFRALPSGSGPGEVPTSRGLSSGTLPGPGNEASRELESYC

B1: SEQ ID NO 168 (peptide)
peptide: H[Aib]EGS[αMeF]TSDV[αMeS]S[αMeF]LEGEAA[αMeK]E[αMeF]IA[αMeF]VVK([Ahx-Ahx-Lauroyl])GG-NH2
modifications: N-terminus assumed
SMILES: CCCCCCCCCCCC(=O)NCCCCCC(=O)NCCCCCC(=O)NCCCC[C@H](NC(=O)[C@@H](NC(=O)[C@@H](NC(=O)[C@](C)(Cc1ccccc1)NC(=O)[C@H](C)NC(=O)[C@@H](NC(=O)[C@](C)(Cc1ccccc1)NC(=O)[C@H](CCC(=O)O)NC(=O)[C@](C)(CCCCN)NC(=O)[C@H](C)NC(=O)[C@H](C)NC(=O)[C@H](CCC(=O)O)NC(=O)CNC(=O)[C@H](CCC(=O)O)NC(=O)[C@H](CC(C)C)NC(=O)[C@](C)(Cc1ccccc1)NC(=O)[C@H](CO)NC(=O)[C@](C)(CO)NC(=O)[C@@H](NC(=O)[C@H](CC(=O)O)NC(=O)[C@H](CO)NC(=O)[C@@H](NC(=O)[C@](C)(Cc1ccccc1)NC(=O)[C@H](CO)NC(=O)CNC(=O)[C@H](CCC(=O)O)NC(=O)C(C)(C)NC(=O)[C@@H](N)Cc1c[nH]cn1)[C@@H](C)O)C(C)C)[C@@H](C)CC)C(C)C)C(C)C)C(=O)NCC(=O)NCC(N)=O
B2: SEQ ID NO 169 (peptide)
peptide: H[Aib]EGS[αMeF]TSDV[αMeS]S[αMeF]LEGEAA[αMeK]E[αMeF]IA[αMeF]VVK([Ahx-Ahx-Ahx-Lauroyl])GG-NH2
modifications: N-terminus assumed
SMILES: CCCCCCCCCCCC(=O)NCCCCCC(=O)NCCCCCC(=O)NCCCCCC(=O)NCCCC[C@H](NC(=O)[C@@H](NC(=O)[C@@H](NC(=O)[C@](C)(Cc1ccccc1)NC(=O)[C@H](C)NC(=O)[C@@H](NC(=O)[C@](C)(Cc1ccccc1)NC(=O)[C@H](CCC(=O)O)NC(=O)[C@](C)(CCCCN)NC(=O)[C@H](C)NC(=O)[C@H](C)NC(=O)[C@H](CCC(=O)O)NC(=O)CNC(=O)[C@H](CCC(=O)O)NC(=O)[C@H](CC(C)C)NC(=O)[C@](C)(Cc1ccccc1)NC(=O)[C@H](CO)NC(=O)[C@](C)(CO)NC(=O)[C@@H](NC(=O)[C@H](CC(=O)O)NC(=O)[C@H](CO)NC(=O)[C@@H](NC(=O)[C@](C)(Cc1ccccc1)NC(=O)[C@H](CO)NC(=O)CNC(=O)[C@H](CCC(=O)O)NC(=O)C(C)(C)NC(=O)[C@@H](N)Cc1c[nH]cn1)[C@@H](C)O)C(C)C)[C@@H](C)CC)C(C)C)C(C)C)C(=O)NCC(=O)NCC(N)=O

target: GLP-1 receptor (GLP-1R) (human, UniProt P43220 24-463); assay: cell-based or functional assay

Row | Primary assay EC50 (cAMP), GLP-1R n1 [nM] | Primary assay EC50 (cAMP), GLP-1R n2 [nM] | Primary assay EC50 (cAMP), Mean pM GLP-1R [pM] | Binder
1 | 0.0064 | 0.003 | 4.7 | H[Aib]EGS[αMeF]TSDV[αMeS]S[αMeF]LEGEAA[αMeK]E[αMeF]IA[αMeF]VVK([Ahx-Ahx-Dodecylbenzoate])GG-NH2 [SEQ ID NO 177]
2 | 0.0025 | 0.0012 | 1.9 | H[Aib]EGS[αMeF]TSDV[αMeS]S[αMeF]LEGEAA[αMeK]E[αMeF]IA[αMeF]VVK([PEG2′-PEG2′-Lauroyl])GG-NH2 [SEQ ID NO 171]
3 | 0.005 | 0.0023 | 3.6 | H[Aib]EGS[αMeF]TSDV[αMeS]S[αMeF]LEGEAA[αMeK]E[αMeF]IA[αMeF]VVK([Ahx-Ahx-Ahx-Dodecylbenzoate])GG-NH2 [SEQ ID NO 178]
4 | 0.022 | 0.011 | 16.3 | H[Aib]EGS[αMeF]TSDV[αMeS]S[αMeF]LEGEAA[αMeK]E[αMeF]IA[αMeF]VVK([γGlu-γGlu-Dodecylbenzoate])GG-NH2 [SEQ ID NO 174]
5 | 0.008 | 0.0045 | 6.2 | H[Aib]EGS[αMeF]TSDV[αMeS]S[αMeF]LEGEAA[αMeK]E[αMeF]IA[αMeF]VVK([PEG2′-Lauroyl])GG-NH2 [SEQ ID NO 170]
6 | 0.0032 | 0.0011 | 2.2 | H[Aib]EGS[αMeF]TSDV[αMeS]S[αMeF]LEGEAA[αMeK]E[αMeF]IA[αMeF]VVK([PEG2′-PEG2′-Dodecylbenzoate])GG-NH2 [SEQ ID NO 180]
7 | 0.021 | 0.0092 | 15.1 | H[Aib]EGS[αMeF]TSDV[αMeS]S[αMeF]LEGEAA[αMeK]E[αMeF]IA[αMeF]VVK([γGlu-Dodecylbenzoate])GG-NH2 [SEQ ID NO 173]
8 | 0.0021 | 0.00083 | 1.5 | H[Aib]EGS[αMeF]TSDV[αMeS]S[αMeF]LEGEAA[αMeK]E[αMeF]IA[αMeF]VVK([PEG2′-PEG2′-PEG2′-Dodecylbenzoate])GG-NH2 [SEQ ID NO 181]
9 | 0.011 | 0.0044 | 7.9 | H[Aib]EGS[αMeF]TSDV[αMeS]S[αMeF]LEGEAA[αMeK]E[αMeF]IA[αMeF]VVK([PEG2′-Dodecylbenzoate])GG-NH2 [SEQ ID NO 179]
10 | 0.0051 | 0.0026 | 3.8 | B1
11 | 0.0034 | 0.0017 | 2.6 | B2
12 | 0.023 | 0.012 | 17.4 | H[Aib]EGS[αMeF]TSDV[αMeS]S[αMeF]LEGEAA[αMeK]E[αMeF]IA[αMeF]VVK([γGlu-γGlu-γGlu-Dodecylbenzoate])GG-NH2 [SEQ ID NO 175]
13 | 0.023 | 0.0096 | 16 | H[Aib]EGS[αMeF]TSDV[αMeS]S[αMeF]LEGEAA[αMeK]E[αMeF]IA[αMeF]VVK([Ahx-Dodecylbenzoate])GG-NH2 [SEQ ID NO 176]
14 | 0.0015 | 0.00072 | 1.1 | H[Aib]EGS[αMeF]TSDV[αMeS]S[αMeF]LEGEAA[αMeK]E[αMeF]IA[αMeF]VVK([PEG2′-PEG2′-PEG2′-Lauroyl])GG-NH2 [SEQ ID NO 172]

target: glucagon receptor (GCGR) (human, UniProt P47871 26-477); assay: cell-based or functional assay
Sequence (P47871 26-477): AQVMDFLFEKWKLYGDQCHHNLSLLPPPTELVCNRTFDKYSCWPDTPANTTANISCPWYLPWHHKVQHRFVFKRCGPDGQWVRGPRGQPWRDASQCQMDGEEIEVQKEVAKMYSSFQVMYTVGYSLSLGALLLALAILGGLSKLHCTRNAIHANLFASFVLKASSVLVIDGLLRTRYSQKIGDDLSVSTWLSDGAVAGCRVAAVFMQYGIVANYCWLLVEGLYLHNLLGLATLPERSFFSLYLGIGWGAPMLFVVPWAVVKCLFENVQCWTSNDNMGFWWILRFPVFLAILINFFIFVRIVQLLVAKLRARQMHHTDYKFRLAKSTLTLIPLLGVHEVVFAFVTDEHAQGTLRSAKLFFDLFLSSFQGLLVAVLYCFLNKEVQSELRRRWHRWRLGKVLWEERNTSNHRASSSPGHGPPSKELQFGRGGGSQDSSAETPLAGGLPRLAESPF

Row | Primary assay EC50 (cAMP), Gluc-R, first run [nM] | Primary assay EC50 (cAMP), Gluc-R, second run [nM] | Binder
15 | 27 | 27 | H[Aib]EGS[αMeF]TSDV[αMeS]S[αMeF]LEGEAA[αMeK]E[αMeF]IA[αMeF]VVK([Ahx-Ahx-Dodecylbenzoate])GG-NH2 [SEQ ID NO 177]
16 | 27 | 27 | H[Aib]EGS[αMeF]TSDV[αMeS]S[αMeF]LEGEAA[αMeK]E[αMeF]IA[αMeF]VVK([PEG2′-PEG2′-Lauroyl])GG-NH2 [SEQ ID NO 171]
17 | 26 | 26 | H[Aib]EGS[αMeF]TSDV[αMeS]S[αMeF]LEGEAA[αMeK]E[αMeF]IA[αMeF]VVK([Ahx-Ahx-Ahx-Dodecylbenzoate])GG-NH2 [SEQ ID NO 178]
18 | 26 | 26 | H[Aib]EGS[αMeF]TSDV[αMeS]S[αMeF]LEGEAA[αMeK]E[αMeF]IA[αMeF]VVK([γGlu-γGlu-Dodecylbenzoate])GG-NH2 [SEQ ID NO 174]
19 | 28 | 28 | H[Aib]EGS[αMeF]TSDV[αMeS]S[αMeF]LEGEAA[αMeK]E[αMeF]IA[αMeF]VVK([PEG2′-Lauroyl])GG-NH2 [SEQ ID NO 170]
20 | 26 | 26 | H[Aib]EGS[αMeF]TSDV[αMeS]S[αMeF]LEGEAA[αMeK]E[αMeF]IA[αMeF]VVK([PEG2′-PEG2′-Dodecylbenzoate])GG-NH2 [SEQ ID NO 180]
21 | 27 | 27 | H[Aib]EGS[αMeF]TSDV[αMeS]S[αMeF]LEGEAA[αMeK]E[αMeF]IA[αMeF]VVK([γGlu-Dodecylbenzoate])GG-NH2 [SEQ ID NO 173]
22 | 25 | 25 | H[Aib]EGS[αMeF]TSDV[αMeS]S[αMeF]LEGEAA[αMeK]E[αMeF]IA[αMeF]VVK([PEG2′-PEG2′-PEG2′-Dodecylbenzoate])GG-NH2 [SEQ ID NO 181]
23 | 27 | 27 | H[Aib]EGS[αMeF]TSDV[αMeS]S[αMeF]LEGEAA[αMeK]E[αMeF]IA[αMeF]VVK([PEG2′-Dodecylbenzoate])GG-NH2 [SEQ ID NO 179]
24 | 28 | 28 | B1
25 | 27 | 27 | B2
26 | 26 | 26 | H[Aib]EGS[αMeF]TSDV[αMeS]S[αMeF]LEGEAA[αMeK]E[αMeF]IA[αMeF]VVK([γGlu-γGlu-γGlu-Dodecylbenzoate])GG-NH2 [SEQ ID NO 175]
27 | 27 | 27 | H[Aib]EGS[αMeF]TSDV[αMeS]S[αMeF]LEGEAA[αMeK]E[αMeF]IA[αMeF]VVK([Ahx-Dodecylbenzoate])GG-NH2 [SEQ ID NO 176]
28 | 26 | 26 | H[Aib]EGS[αMeF]TSDV[αMeS]S[αMeF]LEGEAA[αMeK]E[αMeF]IA[αMeF]VVK([PEG2′-PEG2′-PEG2′-Lauroyl])GG-NH2 [SEQ ID NO 172]

target: T1, glucose-dependent insulinotropic …; assay: cell-based or functional assay

Row | Primary assay EC50 (cAMP), GIP-R, first run [nM] | Primary assay EC50 (cAMP), GIP-R, second run [nM] | Binder
29 | 27 | 27 | H[Aib]EGS[αMeF]TSDV[αMeS]S[αMeF]LEGEAA[αMeK]E[αMeF]IA[αMeF]VVK([Ahx-Ahx-Dodecylbenzoate])GG-NH2 [SEQ ID NO 177]
30 | 27 | 27 | H[Aib]EGS[αMeF]TSDV[αMeS]S[αMeF]LEGEAA[αMeK]E[αMeF]IA[αMeF]VVK([PEG2′-PEG2′-Lauroyl])GG-NH2 [SEQ ID NO 171]
31 | 26 | 26 | H[Aib]EGS[αMeF]TSDV[αMeS]S[αMeF]LEGEAA[αMeK]E[αMeF]IA[αMeF]VVK([Ahx-Ahx-Ahx-Dodecylbenzoate])GG-NH2 [SEQ ID NO 178]
32 | 26 | 26 | H[Aib]EGS[αMeF]TSDV[αMeS]S[αMeF]LEGEAA[αMeK]E[αMeF]IA[αMeF]VVK([γGlu-γGlu-Dodecylbenzoate])GG-NH2 [SEQ ID NO 174]
33 | 28 | 28 | H[Aib]EGS[αMeF]TSDV[αMeS]S[αMeF]LEGEAA[αMeK]E[αMeF]IA[αMeF]VVK([PEG2′-Lauroyl])GG-NH2 [SEQ ID NO 170]
34 | 26 | 26 | H[Aib]EGS[αMeF]TSDV[αMeS]S[αMeF]LEGEAA[αMeK]E[αMeF]IA[αMeF]VVK([PEG2′-PEG2′-Dodecylbenzoate])GG-NH2 [SEQ ID NO 180]
35 | 27 | 27 | H[Aib]EGS[αMeF]TSDV[αMeS]S[αMeF]LEGEAA[αMeK]E[αMeF]IA[αMeF]VVK([γGlu-Dodecylbenzoate])GG-NH2 [SEQ ID NO 173]
36 | 25 | 25 | H[Aib]EGS[αMeF]TSDV[αMeS]S[αMeF]LEGEAA[αMeK]E[αMeF]IA[αMeF]VVK([PEG2′-PEG2′-PEG2′-Dodecylbenzoate])GG-NH2 [SEQ ID NO 181]
37 | 27 | 27 | H[Aib]EGS[αMeF]TSDV[αMeS]S[αMeF]LEGEAA[αMeK]E[αMeF]IA[αMeF]VVK([PEG2′-Dodecylbenzoate])GG-NH2 [SEQ ID NO 179]
38 | 28 | 28 | B1
39 | 27 | 27 | B2
40 | 26 | 26 | H[Aib]EGS[αMeF]TSDV[αMeS]S[αMeF]LEGEAA[αMeK]E[αMeF]IA[αMeF]VVK([γGlu-γGlu-γGlu-Dodecylbenzoate])GG-NH2 [SEQ ID NO 175]
41 | 27 | 27 | H[Aib]EGS[αMeF]TSDV[αMeS]S[αMeF]LEGEAA[αMeK]E[αMeF]IA[αMeF]VVK([Ahx-Dodecylbenzoate])GG-NH2 [SEQ ID NO 176]
42 | 26 | 26 | H[Aib]EGS[αMeF]TSDV[αMeS]S[αMeF]LEGEAA[αMeK]E[αMeF]IA[αMeF]VVK([PEG2′-PEG2′-PEG2′-Lauroyl])GG-NH2 [SEQ ID NO 172]
